Data published in patent US11833164B2, “Methods of treating Fabry disease in patients having a mutation in the GLA gene” (Amicus Therapeutics, Inc., priority 2019, dated 2023).
Residue numbers refer to the chain shown, from its start. Names and notes keep the numbering of the source.

B1: E178G (protein)
chain: MQLRNPELHLGCALALRFLALVSWDIPGARALDNGLARTPTMGWLHWERFMCNLDCQEEPDSCISEKLFMEMAELMVSEGWKDAGYEYLCIDDCWMAPQRDSEGRLQADPQRFPHGIRQLANYVHSKGLKLGIYADVGNKTCAGFPGSFGYYDIDAQTFADWGVDLLKFDGCYCDSLGNLADGYKHMSLALNRTGRSIVYSCEWPLYMWPFQKPNYTEIRQYCNHWRNFADIDDSWKSIKSILDWTSFNQERIVDVAGPGGWNDPDMLVIGNFGLSWNQQVTQMALWAIMAAPLFMSNDLRHISPQAKALLQDKDVIAINQDPLGKQGYQLRQGDNFEVWERPLSGLAWAVAMINRQEIGGPRSYTIAVASLGKGVACNPACFITQLLPVKRKLGFYEWTSRLRSHINPTGTVLLQLENTMQMSLKDLL
B2: A181V (protein)
chain: B1 chain with G178E, A181V
B3: E178K (protein)
chain: B1 chain with G178K
B4: D182Y (protein)
chain: B1 chain with G178E, D182Y
B5: D182E (protein)
chain: B1 chain with G178E, D182E
B6: E178Q (protein)
chain: B1 chain with G178Q
B7: L180S (protein)
chain: B1 chain with G178E, L180S
B8: A181T (protein)
chain: B1 chain with G178E, A181T
B9: A181P (protein)
chain: B1 chain with G178E, A181P
B10: D182V (protein)
chain: B1 chain with G178E, D182V
B11: L180M (protein)
chain: B1 chain with G178E, L180M
B12: Y184H (protein)
chain: B1 chain with G178E, Y184H
B13: Y184S (protein)
chain: B1 chain with G178E, Y184S
B14: D182A (protein)
chain: B1 chain with G178E, D182A
B15: K185M (protein)
chain: B1 chain with G178E, K185M
B16: Y184F (protein)
chain: B1 chain with G178E, Y184F

system: mutant form of α-Gal A expressed in HEK-293 cells; experiment: HEK assay (GLP HEK / Migalastat Amenability Assay): α-Gal A activity in lysates of transiently transfected HEK-293 cells incubated with or without 10 μM migalastat; type: cell-based, human; conditions: 10 μM migalastat versus baseline
Method in brief: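 Activity reported as 4-MU released (nmol/mg/hr), mean±SEM, from lysates of transiently transfected HEK-293 cells expressing mutant α-Gal A, cultured with or without 10 μM migalastat.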

Molecule	Absolute increase (% WT)
B1	18.6 % WT
B2	14.2 % WT
B3	16.4 % WT
B4	31.9 % WT
B5	32.3 % WT
B6	18.3 % WT
B7	35.5 % WT
B8	19.2 % WT
B9	29.8 % WT
B10	44.7 % WT
B11	29.5 % WT
B12	18.4 % WT
B13	25.2 % WT
B14	31.8 % WT
B15	27.8 % WT
B16	31.8 % WT

same assay, conditions: 10 μM migalastat α-Gal A activity relative to baseline

Molecule	Relative increase
B1	1.5
B2	1.2
B3	1.2
B4	1.4
B5	1.4
B6	1.3
B7	3.3
B8	1.4
B9	1.9
B10	1.6
B11	1.3
B12	1.6
B13	2.7
B14	1.3
B15	1.3
B16	1.4

same assay, conditions: 10 μM migalastat, 5 days; percentage of baseline wild-type α-Gal A activity; mean ± SEM

Molecule	10 μM migalastat α-Gal A activity (% WT)
B1	61.7 ± 6.4 % WT
B2	93.2 ± 5.3 % WT
B3	90.9 ± 4.8 % WT
B4	116.5 ± 6.4 % WT
B5	117.1 ± 4.5 % WT
B6	86.4 ± 5 % WT
B7	50.9 ± 2.3 % WT
B8	71.3 ± 4.6 % WT
B9	61.5 ± 3.3 % WT
B10	124.8 ± 6.9 % WT
B11	122.9 ± 5.5 % WT
B12	48.6 ± 3.5 % WT
B13	40.6 ± 1.6 % WT
B14	133.3 ± 8.2 % WT
B15	102.9 ± 9 % WT
B16	109.7 ± 5.8 % WT

same assay, conditions: absence of migalastat; percentage of baseline wild-type α-Gal A activity; mean ± SEM

Molecule	Baseline α-Gal A activity (% WT)
B1	43.1 ± 4.7 % WT
B2	79.1 ± 3.5 % WT
B3	74.5 ± 3.4 % WT
B4	84.7 ± 4.1 % WT
B5	84.8 ± 4 % WT
B6	68.1 ± 4.5 % WT
B7	15.4 ± 1.5 % WT
B8	52.1 ± 2.7 % WT
B9	31.7 ± 2 % WT
B10	80.2 ± 4.2 % WT
B11	93.4 ± 6.6 % WT
B12	30.2 ± 2.9 % WT
B13	15.4 ± 1 % WT
B14	101.5 ± 5.7 % WT
B15	75.1 ± 4.6 % WT
B16	77.9 ± 4.4 % WT

same assay, conditions: lysates of HEK-293 cells transfected with the mutant form, incubated 5 days in the absence of migalastat; mean ± SEM

Molecule	Baseline α-Gal A activity
B1	17470 ± 2323 nmol/mg/h
B2	26667 ± 1945 nmol/mg/h
B3	25584 ± 1225 nmol/mg/h
B4	28377 ± 2226 nmol/mg/h
B5	28082 ± 2023 nmol/mg/h
B6	23272 ± 1501 nmol/mg/h
B7	5625 ± 604 nmol/mg/h
B8	17946 ± 1002 nmol/mg/h
B9	10948 ± 725 nmol/mg/h
B10	26881 ± 2166 nmol/mg/h
B11	35987 ± 2266 nmol/mg/h
B12	10980 ± 867 nmol/mg/h
B13	5213 ± 371 nmol/mg/h
B14	33673 ± 2886 nmol/mg/h
B15	33484 ± 2151 nmol/mg/h
B16	26088 ± 1334 nmol/mg/h

same assay, conditions: lysates of HEK-293 cells transfected with the mutant form, incubated 5 days with 10 μM migalastat; mean ± SEM

Molecule	10 μM migalastat α-Gal A activity
B1	26566 ± 4263 nmol/mg/h
B2	32358 ± 2863 nmol/mg/h
B3	31222 ± 1660 nmol/mg/h
B4	39247 ± 3250 nmol/mg/h
B5	38956 ± 2806 nmol/mg/h
B6	29671 ± 1733 nmol/mg/h
B7	18335 ± 964 nmol/mg/h
B8	24490 ± 1576 nmol/mg/h
B9	21274 ± 1279 nmol/mg/h
B10	42107 ± 3524 nmol/mg/h
B11	47587 ± 2132 nmol/mg/h
B12	17894 ± 1145 nmol/mg/h
B13	13965 ± 799 nmol/mg/h
B14	44436 ± 3828 nmol/mg/h
B15	44387 ± 2696 nmol/mg/h
B16	36815 ± 2009 nmol/mg/h
